Results taken from the supplement of paper PMC9112550, “Optimization of the antimicrobial peptide Bac7 by deep mutational scanning” (BMC Biology, 2022).

system: Escherichia coli TOP10; assay: shrunken log2 fold change of peptide-encoding DNA abundance (4.5 h post-induction vs induction); higher = less antimicrobial activity (less host growth inhibition); settings: time post-induction: 4.5 h; library: site-saturation at positions 5, 18, 19, 20
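Note: peptides expressed intracellularly from a pBAD plasmid library in pooled LB shake-flask culture, induced with 0.3% L-arabinose, DNA abundance read by NGS, three biological replicates, DESeq2 with apeglm shrinkage.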

Row | Sequence | shrunken log2 fold change
1 | RRIRYRPPRLPRPRPRPDGTPRP | 0.0319
2 | RRIRDRPPRLPRPRPRPLDPPRP | 0.0323
3 | RRIRSRPPRLPRPRPRPSGWPRP | 0.434
4 | RRIRTRPPRLPRPRPRPNIGPRP | -0.0888
5 | RRIRGRPPRLPRPRPRPKHWPRP | 0.646
6 | RRIRGRPPRLPRPRPRPPDEPRP | 1.27
7 | RRIRKRPPRLPRPRPRPHGAPRP | 0.594
8 | RRIRVRPPRLPRPRPRPDWNPRP | -0.343
9 | RRIRHRPPRLPRPRPRPQRWPRP | 0.00359
10 | RRIRQRPPRLPRPRPRPSKMPRP | -0.0686
11 | RRIRERPPRLPRPRPRPQEFPRP | -0.0119
12 | RRIRGRPPRLPRPRPRPAHPPRP | 0.754
13 | RRIRARPPRLPRPRPRPNIIPRP | -0.248
14 | RRIRLRPPRLPRPRPRPSSPPRP | -0.115
15 | RRIRRRPPRLPRPRPRPQQNPRP | 0.0713
16 | RRIRNRPPRLPRPRPRPPFKPRP | -0.325
17 | RRIRQRPPRLPRPRPRPFSCPRP | -0.00804
18 | RRIRQRPPRLPRPRPRPKMEPRP | -0.0177
19 | RRIRERPPRLPRPRPRPMTSPRP | -0.212
20 | RRIRCRPPRLPRPRPRPCFLPRP | -0.622

Row | Sequence | shrunken log2 fold change
21 | RRIRSRPPRLPRPRPRPKFSPRP | 0.0488
22 | RRIRARPPRLPRPRPRPDDVPRP | 0.0875
23 | RRIRWRPPRLPRPRPRPDEPPRP | -0.00634
24 | RRIRTRPPRLPRPRPRPWWRPRP | -0.00919
25 | RRIRWRPPRLPRPRPRPAAGPRP | 0.545
26 | RRIRKRPPRLPRPRPRPVQTPRP | 0.914
27 | RRIRWRPPRLPRPRPRPLICPRP | 0.803
28 | RRIRVRPPRLPRPRPRPAGEPRP | 0.339
29 | RRIRIRPPRLPRPRPRPEVHPRP | -0.102
30 | RRIRTRPPRLPRPRPRPKPEPRP | 0.0154
31 | RRIRIRPPRLPRPRPRPGSCPRP | 0.968
32 | RRIRDRPPRLPRPRPRPTMDPRP | -0.0444
33 | RRIRERPPRLPRPRPRPIIHPRP | -0.413
34 | RRIRTRPPRLPRPRPRPVKGPRP | -0.0154
35 | RRIRMRPPRLPRPRPRPYNRPRP | -0.336
36 | RRIRNRPPRLPRPRPRPFRTPRP | -0.066
37 | RRIRSRPPRLPRPRPRPVEGPRP | -0.00141
38 | RRIRARPPRLPRPRPRPMIKPRP | 0.148
39 | RRIRTRPPRLPRPRPRPSMQPRP | -0.244
40 | RRIRERPPRLPRPRPRPGVHPRP | -0.139

Row | Sequence | shrunken log2 fold change
41 | RRIRSRPPRLPRPRPRPQRWPRP | 0.319
42 | RRIRARPPRLPRPRPRPPGNPRP | 0.574
43 | RRIRKRPPRLPRPRPRPIACPRP | 0.104
44 | RRIRMRPPRLPRPRPRPFPTPRP | 0.153
45 | RRIRMRPPRLPRPRPRPFWDPRP | 0.359
46 | RRIRVRPPRLPRPRPRPWAGPRP | 0.116
47 | RRIRMRPPRLPRPRPRPNETPRP | -0.0123
48 | RRIRIRPPRLPRPRPRPACSPRP | -0.129
49 | RRIRGRPPRLPRPRPRPACKPRP | 0.923
50 | RRIRPRPPRLPRPRPRPTVMPRP | 0.0636
51 | RRIRPRPPRLPRPRPRPMIEPRP | -0.0882
52 | RRIRMRPPRLPRPRPRPYATPRP | -0.0602
53 | RRIRGRPPRLPRPRPRPYYEPRP | 0.0278
54 | RRIRCRPPRLPRPRPRPHYTPRP | -0.311
55 | RRIRERPPRLPRPRPRPTLMPRP | 0.0249
56 | RRIRIRPPRLPRPRPRPRDGPRP | 0.575
57 | RRIRIRPPRLPRPRPRPKSDPRP | -0.222
58 | RRIRVRPPRLPRPRPRPIHCPRP | 0.0605
59 | RRIRERPPRLPRPRPRPEPFPRP | -0.0469
60 | RRIRDRPPRLPRPRPRPVWKPRP | -0.0168
